Target: T1, SAP-97 PDZ1-2-3 (human, UniProt Q12959 220-554)
T1 construct: human SAP-97, residues 220-554; Synthetic DNA in a modified pRSET vector; source: E. coli BL21(DE3)pLysS, purified (His-Trap IMAC, MonoQ ion exchange)
Test: fluorescence polarisation; competition against the monomeric CRIPT probe; 50 mM TRIS, 100 mM NaCl, 1 mM EDTA, 1 mM DTT; Ki calculated according to Nikolovska-Coleska et al.
Conditions: both partners purified

T1 sequence (Q12959 220-554): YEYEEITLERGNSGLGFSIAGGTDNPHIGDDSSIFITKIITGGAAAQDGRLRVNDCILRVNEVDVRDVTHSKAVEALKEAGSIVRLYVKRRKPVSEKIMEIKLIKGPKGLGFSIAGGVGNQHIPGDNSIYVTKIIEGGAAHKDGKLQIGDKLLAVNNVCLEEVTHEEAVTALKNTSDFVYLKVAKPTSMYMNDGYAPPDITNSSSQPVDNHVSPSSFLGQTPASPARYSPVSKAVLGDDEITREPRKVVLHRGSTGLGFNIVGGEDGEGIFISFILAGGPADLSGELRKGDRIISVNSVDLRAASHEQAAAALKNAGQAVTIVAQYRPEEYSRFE

- Ki: 1000 nM
B1: CRIPT-06 (1) (peptide)
peptide: YKQTSV
notes: C-terminal hexapeptide of CRIPT; also called CRIPT hexapeptide; YKQTSV; source: synthetic peptide

— article PMC4319893 (PLoS ONE, 2015)
